Paper PMC6650940, “Investigations of Accessibility of T2/T3 Copper Center of Two-Domain Laccase from Streptomyces griseoflavus Ac-993” (International Journal of Molecular Sciences, 2019)
Substitutions are numbered along the chain they refer to. Numbers in names are those of the source.

B1: SgfSL wt (two-domain laccase, Streptomyces griseoflavus Small Laccase) (Streptomyces griseoflavus; I170A) (protein)
chain: AGAAPAGGEVRRVTMYAERLAGGQMGYGLEKGKASIPGPLIELNEGDTLHVEFENTMDVPVSLHVHGLDYEISSDGTKQNKSHVEPGGTRTYTWRTHEPGRRADGTWRAGSAGYWHYHDHVVGTEHGTGGARNGLYGPVIVRRKGDVLPDATHTIVFNDMTINNRPAHTGPNFEATVGDRVEIVMITHGEYYHTFHMHGHRWADNRTGMLTGPDDPSQVIDNKICGPADSFGFQIIAGEGVGAGAWMYHCHVQSHSDMGMVGLFLVKKPDGTIPGYDPQEHAH
notes: Ni-NTA purified from E. coli (pQE-30); I170A and I170F from pET32-Xa/LIC with thioredoxin tag cut by factor Xa (forward primer encodes AGAAPAGG...); homotrimer
B2: SgfSL wt (two-domain laccase, Streptomyces griseoflavus Small Laccase) (Streptomyces griseoflavus; I170F) (protein)
chain: B1 chain with A131F
notes: as for B1
B3: SgfSL wt (two-domain laccase, Streptomyces griseoflavus Small Laccase) (Streptomyces griseoflavus) (protein)
chain: B1 chain with A131I
notes: as for B1

Key:
[1] = substrate: CCn1c(=NN=c2sc3cc(S(=O)(=O)O)ccc3n2CC)sc2cc(S(=O)(=O)O)ccc21; test: purified protein; assay type: biochemical, Streptomyces griseoflavus; conditions: pH 4.0, 30 °C, Britton-Robinson buffer, 1 mM CuSO4 growth medium
[2] = substrate: COc1cccc(OC)c1O; test: purified protein; assay type: biochemical, Streptomyces griseoflavus; conditions: pH 9.0, 30 °C, Britton-Robinson buffer, 1 mM CuSO4 growth medium

Protein	Km [1] [µM]	kcat [1] [s⁻¹]	kcat/Km [1] [M⁻¹ s⁻¹]	Km [2] [µM]	kcat [2] [s⁻¹]	kcat/Km [2] [M⁻¹ s⁻¹]
B1	630 ± 110	0.7 ± 0.2	1110	–	–	–
B2	200 ± 40	0.08 ± 0.01	400	–	–	–
B3	–	–	–	5200 ± 110	0.8 ± 0.09	150
